Measured values reported in publication PMC7962898.

Molecular target: Porcine Epidemic Diarrhea Virus Spike ectodomain, Sf9 expressed (Porcine epidemic diarrhea virus (PEDV) USA/Colorado/2013) (UniProt Q91AV1)
Experiment: cryo-EM structure

## Porcine Epidemic Diarrhea Virus Spike ectodomain, Sf9 expressed (from UniProt Q91AV1 26-1322) (domain or fragment)
  stoichiometry N: 3
